± gives the uncertainty stated by the source.
Assay: self-splicing fitness, log relative to wild type (ln ratio); higher = more splicing; Tetrahymena group I intron in knt gene, E. coli kanamycin selection, DiMSum; sequences stand for … in CUCUCU…GGAGGGAAAAGUUAUCAGGCAUGCACCUGGUAGCUAGUCUUUAAACCAAUAGAUUGCAUCGGUUUAAAAGGCAAGACCGUCAAAUUGCGGGAAAGGGGUCAACAGCCGUUCAGUACCAAGUCUCAGGGGAAACUUUGAGAUGGCCUUGCAAAGGGUAUGGUAAUAAGCUGACGGACAUGGUCCUAACCACGCAGCCAAGUCCUAAGUCAACAGAUCUUCUGUUGAUAUGGAUGCAGUUCACAGACUAAAUGUCGGUCGGGGAAGAUGUAUUCUUCUCAUAAGAUAUAGUCGGACCUCUCCUUAAUGGGAGCUAGCGGAUGAAGUGAUGCAACACUGGAGCCGCUGGGAACUAAUUUGUAUGCGAAAGUAUAUUGAUUAGUUUUGGAGUACUCGUGGUCG
Outline: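 DiMSum derived fitness as the error-weighted combination of fold changes across replicates, kanamycin versus no kanamycin, normalised to wild type. E. coli BL21(DE3) held the library, which randomised all eight P1ex-region intron nucleotides within the knt kanamycin-resistance gene on pET-22b(+). Six replicate transformations grew overnight at 37°C or 30°C on LB agar with or without 25 μg/mL kanamycin, also containing 100 μg/mL carbenicillin, 50 μM IPTG and 0.2% rhamnose, and pooled colonies were amplicon-sequenced on an Illumina HiSeq 2500.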

Sequence	self-splicing fitness (ln) (30 °C)	self-splicing fitness (ln) (37 °C)
AAAAAGCAAUAUUACGACAC	-0.799 ± 0.094	-0.575 ± 0.13
ACUUAGCAAUAUUACGAAGC		-2.25 ± 0.5
GGGUAGCAAUAUUACGAUCU	-1.64 ± 0.092	-0.576 ± 0.11
AUGGAGCAAUAUUACGAUCG		-1.1 ± 0.42
CGGUAGCAAUAUUACGGAGC	-3.01 ± 0.33	-2.91 ± 0.34
CCGUAGCAAUAUUACGUGUC	-3.6 ± 0.29	-1.87 ± 0.32
UUCCAGCAAUAUUACGCCUG	-3.5 ± 0.47	-2.35 ± 0.39
CUCCAGCAAUAUUACGGUGC	-2.92 ± 0.17	-2.27 ± 0.24
CACCAGCAAUAUUACGACCU	-3.45 ± 0.17	-1.35 ± 0.17
UCGUAGCAAUAUUACGUUUC	-3.71 ± 0.24	-2.31 ± 0.21
AAGUAGCAAUAUUACGGGCA	-1.25 ± 0.088	-0.149 ± 0.098
CGAAAGCAAUAUUACGUCGU	-3.33 ± 0.14	-2.36 ± 0.18
UAAGAGCAAUAUUACGCAAC		-2.19 ± 0.45
CCGAAGCAAUAUUACGGGUC	-3.13 ± 0.22	-3.03 ± 0.37
CCCCAGCAAUAUUACGGGGU	-3.9 ± 0.12	-2.54 ± 0.11
UUGCAGCAAUAUUACGCGGA	-1.29 ± 0.12	-0.882 ± 0.13
CGGCAGCAAUAUUACGCGUA	-1.97 ± 0.29	-0.576 ± 0.16

Sequence	self-splicing fitness (ln) (30 °C)	self-splicing fitness (ln) (37 °C)
CUCGAGCAAUAUUACGGAAU	-3.24 ± 0.2	-3.23 ± 0.38
UUUAAGCAAUAUUACGUUAC	-3.76 ± 0.3	-3.05 ± 0.26
CUUUAGCAAUAUUACGUUUU	-3.27 ± 0.3	-2.39 ± 0.35
ACAUAGCAAUAUUACGAACG	-1.2 ± 0.17	-0.114 ± 0.28
CUUUAGCAAUAUUACGUGAA	-3.77 ± 0.35	-2.65 ± 0.28
UGUCAGCAAUAUUACGAGAA	-1.43 ± 0.27	-1.48 ± 0.22
AUCGAGCAAUAUUACGGCAG		-2.63 ± 0.46
UGUCAGCAAUAUUACGUCGU	-1.49 ± 0.1	-0.759 ± 0.11
ACUGAGCAAUAUUACGCCGA	-3.61 ± 0.47	-1.33 ± 0.23
CGGCAGCAAUAUUACGACAU	-3.303 ± 0.021	-1.91 ± 0.035
ACGAAGCAAUAUUACGCUCG	-1.53 ± 0.14	-1.17 ± 0.17
GUAAAGCAAUAUUACGUGGA	-2.51 ± 0.095	-1.38 ± 0.073
UUGUAGCAAUAUUACGAUGG	-1.53 ± 0.16	-0.75 ± 0.2
UGCCAGCAAUAUUACGGUAU	-3.55 ± 0.16	-2 ± 0.19
GACUAGCAAUAUUACGUGAG	-2.07 ± 0.1	-1.54 ± 0.14
GACAAGCAAUAUUACGGAUC	-1.19 ± 0.13	-0.182 ± 0.15
CAAAAGCAAUAUUACGGGUG	-0.689 ± 0.046	-0.361 ± 0.076
